The values that follow come from the nanobody polyreactivity screen of Harvey et al. (2022).

The series in a line: yeast display, Sf9 membrane polyspecificity reagent, FACS + sequencing; frameworks hold sequencing errors. Put shortly: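 Galactose-induced (36–48 hours) yeast carrying a synthetic nanobody display library were exposed to 10% biotinylated, detergent-solubilized Sf9 membrane reagent at 4 °C for 1 hour. FACS followed streptavidin microbead enrichment, using low and high (top ~1%) gates for expression (anti-HA) and reagent binding (streptavidin). Colony PCR, MiSeq 2 × 250 sequencing and CDR-length filtering followed. Labels for polyreactivity reflect the gate of origin.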
In the case of “QVQLVESGGGLVQAGGSLRLSCAASGRIFGLYAMGWYRQAPGKERELVAAIRSSGGSTYYADSVKGRFTISRDNAQNTVYLQMISQKPDDTAVYYCAADGDEDGEYWGQGTQVTVSS”, the “polyreactivity (PSR sort gate)” value is on record as “low polyreactivity”.

Consider “QVQLVESGGGLVQAGGSLRLSCAASGSIFDYYAMGWYRQAPGKERELVSTYYADSVKGRFTISRDNAKNTVYLQMNSLKPEDTAVYYCAKDRGTTGIRDGPAASLYGYEYWGQGTQVTVSS”, for which the “polyreactivity (PSR sort gate)” value is “low polyreactivity”.

For the sequence “QDQLVESGGGLVQAGGSLRLSCAASALIFSLNAMGWYRQAPGTERELVAAISSDDSTYYADSVKGRFTISRDNAKNTVYLQMNSLKPEDTAVYYCAAVQLVPGYVDSNDYYWGQGTQVTVSS”, the “polyreactivity (PSR sort gate)” value is on record as “low polyreactivity”.

For the sequence “QVQLVESGGGLVQAGGSLRLSCAPSGYIFPFNALGGYRQAPGKERELVAAINNGGRTYYADSVKGRFTISRDNAKNTVFLQMHSLKPEDTAVDSCAAGSKSDMDWGQGTQVTVSS”, the “polyreactivity (PSR sort gate)” value is reported as “low polyreactivity”.

With “QVQLVESGGGLVQAGGSLRLSCAASGLIIRYYDMGWYRQAPGKEREFVAAITWNGGSTYADSVKGRFTISRDNAKNTVYLQMNSLKPEDTAVYYCAADLSYWDDFDYWGHGTQVTVSS”, the “polyreactivity (PSR sort gate)” value is “low polyreactivity”.

As to “QVQLVESGGGLGQAGGSLRLSCAASGSTLNYYAMGWYTQAPGKERELVAAITWSGGSTSYADSVKGRFTISRDNAKNTVYLQMNSLKPEDTAVYYCATDFPTVQLYDTDWLSSDMGYWGQGTQVTVSS”, the “polyreactivity (PSR sort gate)” value was “low polyreactivity”.

Regarding “QVQLVESGGGLVQAGGSLRLSCAASGRIFDIYTMGWYRQAPGKERELVASITKRGGSTYYADSVKGRFTISRDNAKNTVYLQMKSLKPEDTAVYFCNVAGKQKPYYVTTRLDYWGQGTQVTVSS”, the “polyreactivity (PSR sort gate)” value is given as “high polyreactivity”.

As for “QVQLEESGGGLVQAGGSLRLSCAAYGSIFSPYAMGWYRHAPGKERELVAAISGRGTSTYYADSVKGRFTISRDNAKNTVDLQMNTLKPEDTEVYYCAAVSYGRSGYDYWGQGTQVTVSS”, the “polyreactivity (PSR sort gate)” value was “high polyreactivity”.

Take “QVQHVESGGGLVQAGGSLRLSCAASGDIFRPNAMGWYRQAPGKERELVAAITRSGGTTYYADSVKGRFTISRDYAKNTVYLQMNSLNPEDTAVYYCAARGLQYYRYDYWGQGTQVTVSS”: the “polyreactivity (PSR sort gate)” value was “low polyreactivity”.

As to “QVQLVESGGGLVQAGGSLRLSCAASGLILYSYAMGWYRQAPGKERELVADISSGGITNYADSVKGRFTISRDNAKNTVYLQMNSLKPEDTAVYYCAADTRPVNYILYDYWGQGTQVTVSS”, the “polyreactivity (PSR sort gate)” value was “low polyreactivity”.

For “QVQLEESGGGLVQAGGSLRLSCAASGFIFYWYAMGWYIKAPGKERELVAAITRSGGRTYYADSVKGRFTFSRDNAKNTVYLQMNRLKPEDTAVYYCNAGYWLSPYKFGYWGQGTQVTVSS”, the “polyreactivity (PSR sort gate)” value was “high polyreactivity”.

Consider “QVQLVESGGGLVQAGGSIRLSCAASGSTFRLYARGWYRQAPGKEREFVAAISFRGGSTYYADSVKGRFTISRDYSKNTVYLQMNSLKPEDTAVYYCNADYYYYYSWFNYWGQGTQVTVSS”, for which the “polyreactivity (PSR sort gate)” value is “high polyreactivity”.

On to “QVQLVESGGGLVQAGVSLRLSCAASGSTFPVNTMGWYRQAPGKERELVAAISWSGGRTYYADSVKGRFTISRDNAKNNVYLQMNILKPEDTAVYYCAADIGSYYYYTYYYWGQGSQVTVSS”, for which the “polyreactivity (PSR sort gate)” value was “high polyreactivity”.

Turning to “QVQLVESGGGLVQAGGSLRLSCAASGSIFGLNDMGWYRQAPGKERELVAGISSGGSTYYADSVKGRFTISRDNAKNTVYLQMNSLKPEDTAVYYCATEGRWPNASYGDYDYWGQGTQVTVSS”, the “polyreactivity (PSR sort gate)” value is reported as “low polyreactivity”.

For “QVQLVESGGGLVQAGGSLRLSCAATGLTLKENVMGWYRQAPGKERELVAAISTGASTYYADSVKGRFTISRDNAKNTVYLQMNSLKPEDTAVYYCAKRVTRCYGYWGQGTQVTVSS”, the “polyreactivity (PSR sort gate)” value is reported as “high polyreactivity”.

As to “QVQLVESGGGLVQAGGSLRLSCAASGSIFRYYAMGWYRQAPGKERELVASITRRGGSTYYADSVKGRFTISRDNAKNTVYLQMNSLKPEDTAFYYCAAHKTYVREYYWGQGTQVTVSS”, the “polyreactivity (PSR sort gate)” value is “high polyreactivity”.

“QVQLEESGGGLVQAGGSLRLSCAASGFTFNPYTMGWYRQAPGKERELVAAITSSGGSTYYADSVKGRFTISRDNAKNTVYLQMNSLKPEDTAVYYCAKLRTASIYDYWGQGTQVTVSS”: the “polyreactivity (PSR sort gate)” value is given as “low polyreactivity”.

Turning to “QVQLVESGGGLVQSGGSLRLSCAASGRTFNANVMGWYRPAPGKERELVAAITYSGGSTYYADSVKGRFTISRDNAKNTVYLQMNSLKPEDTAVYYCAADYVYTFYYWGQGTQVTVSS”, the “polyreactivity (PSR sort gate)” value was “low polyreactivity”.

For “QVQLVESGGGLVQAGGSLRLSCAASGSTFRANVMGWYRQAPGKEMELVAAITSGGGSTYYADSVKGRFTISRDNAKNTVYLQMNSLKPEDTAVYYCATRPIQYRRGYDYWGQGTQVTVSS”, the “polyreactivity (PSR sort gate)” value is “high polyreactivity”.

Take “QVQLVESGGGLVQAGGSLRLSCAASGRIIVPYGMGWYRQAPGKERELVAAITTGGSTNYADSVKGRFTISRDNAKNTVYLQMNSLKPEDTAVYYCAVDWYPQLIYSFNSELEYWGQGTQVTVSS”: the “polyreactivity (PSR sort gate)” value is “low polyreactivity”.

With “QVQLVESGGGLVQAGGSLRLSCAASVSTVSYNAMGWYRQAPGKERELVAAISGSGGTTYYADSVKGRFTISRDNAKNTVYLQMNSLKPEDTAVYYCAARPFRSWRYDYWGQGTQVTVSS”, the “polyreactivity (PSR sort gate)” value is reported as “low polyreactivity”.

As to “QVQLVESGGGLVQAGGSLRLSCAASGYIFVRNAMGWSRQAPGKERELVAAISRTDGTTYYADSVKGRFTISRDNAKNTVYLQMNSLIPEDTAVYYCAADYLRAPYYQYEYWGQGTQVTVSS”, the “polyreactivity (PSR sort gate)” value is “low polyreactivity”.

Take “QVQLLESGGGLVQAGGSLRLTCAASGITFQYYAMGWYRQAPGKERELVAAITSSGVSTYYADSVKGRFTISRDNAKNTVYLQMNSLKPEDTAVYYCNTVVRGWSSSAYDYWGQGTQVTVSS”: the “polyreactivity (PSR sort gate)” value is reported as “low polyreactivity”.

“QVQLVESGGGLVQEGGSLRLSCAASGFIFFLNAMGWYRQAPGKERELVAAISSSGGRTYYADSVKGRFTISRDNAKITVYLQMNSLKTEVTAVYYCNAVTLYRSRTDGYWGQGTQVTVSS”: the “polyreactivity (PSR sort gate)” value is “high polyreactivity”.

Regarding “QVQLVESGGGLVQAGGSLRLSCAASVFTSLIYAMGWYRPAPGKERELVATLTWGGGSTYADSVKGRLTISRDNAQNTVYLQMNSLKPVDTAVYDCKADIYDSWVYATVYSDRYDYWGQGTQVTVSS”, the “polyreactivity (PSR sort gate)” value was “low polyreactivity”.

Turning to “QVQLVESGGGLVQAGGTLRLSCDASGLIFEYYAMGWYRQAPGKERELVAVINWSGASTYYADSVKGRFTISRDNAKNTVFLQMNSLKPEDTAVYYCAAGVLITGLRFDYWGQGSQVTVSS”, the “polyreactivity (PSR sort gate)” value was “low polyreactivity”.

As to “QVQLVESGGGLVQAGGSLRLSCAASGLIFFWYTMGWYRKAPGKERELVAAIDSGGSTYYADSVKGRFTISRDNAKNTVYLQMNSLKPEDTAVYYCNADPGWGIYDDYWVQGTQVTVSS”, the “polyreactivity (PSR sort gate)” value is “high polyreactivity”.

As to “QVQLVESGGGLVQAGGSLRLSCAASGLTFYHYAMGSYRQAPGKERELVAAITTIGGSTNYADSVKGRFTISRDNAKNTVYLQMNSLKPADNAVYYCAKKLTDAQASSHYDYWGQGTQVTVSS”, the “polyreactivity (PSR sort gate)” value is listed as “low polyreactivity”.

Consider “QVQLVESGGGLVQAGGSLRLSCAASGRIFYAYALGWYRQATGIERELVAAISRRGGSTYYADSVKGRFTISRDNAKNTVYLQMNSLKPEDTAVYYCAADRQFSYVYYIDPTAYEYCGQGTQVTVSS”, for which the “polyreactivity (PSR sort gate)” value is “high polyreactivity”.

For the sequence “QVQLVESGGGLVQAGGSLRLSCAASGITFIYYAMGWYRQAPGKEREFVAAITFRDGDTYYADSVKGRFTISRDNAKNTVYLQMNSLKPEDTAVYYCADTYWVYYFYPGYDYWGQGTQVTVSS”, the “polyreactivity (PSR sort gate)” value is on record as “low polyreactivity”.
